Assay results as given in patent publication US20240376170A1.
Bridges are numbered along the chain shown (N, C = ends). Primed or numbered codes have the meaning given here. [ ]: non-standard residue; d: D form. Ygp(4) = Tyr with amino-capped PEG8 (O-(8x polyethylene glycol-amino)-tyrosine); Yn3(4) = Tyr with azide-capped PEG9 (O-(9x polyethylene glycol-azido)-tyrosine); PEG9″ = 9x polyethylene glycol spacer; PEG4′ = 4x polyethylene glycol; PEG9′ = 9x polyethylene glycol; hSer = N[C@@H](CCO)C(=O)O; Nle = CCCC[C@H](N)C(=O)O

Each binder was assayed against IL-2Rβγ (CD122+, CD132+) on HEK-Blue IL-2Rβγ reporter cells (UniProt P14784) (assay: cell-based or functional assay).
Chain of IL-2Rβγ (CD122+, CD132+) on HEK-Blue IL-2Rβγ reporter cells (P14784 27-551 limits assumed, chain 1 of 2): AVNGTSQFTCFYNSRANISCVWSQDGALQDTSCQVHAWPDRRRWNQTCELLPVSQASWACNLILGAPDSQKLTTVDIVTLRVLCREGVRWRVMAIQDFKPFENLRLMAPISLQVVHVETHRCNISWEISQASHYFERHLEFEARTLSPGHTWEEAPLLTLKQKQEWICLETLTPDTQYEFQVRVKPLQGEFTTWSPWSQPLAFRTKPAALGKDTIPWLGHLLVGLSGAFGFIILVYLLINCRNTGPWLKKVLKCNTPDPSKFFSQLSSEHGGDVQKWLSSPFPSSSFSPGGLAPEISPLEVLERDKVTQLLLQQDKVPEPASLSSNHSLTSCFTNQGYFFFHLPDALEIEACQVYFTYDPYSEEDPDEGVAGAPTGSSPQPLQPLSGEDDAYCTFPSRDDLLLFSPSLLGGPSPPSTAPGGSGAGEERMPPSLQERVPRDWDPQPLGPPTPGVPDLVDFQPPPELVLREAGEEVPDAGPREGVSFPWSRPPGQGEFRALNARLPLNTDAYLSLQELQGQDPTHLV
Chain of IL-2Rβγ (CD122+, CD132+) on HEK-Blue IL-2Rβγ reporter cells (P31785 23-369 limits assumed, chain 2 of 2, further chain): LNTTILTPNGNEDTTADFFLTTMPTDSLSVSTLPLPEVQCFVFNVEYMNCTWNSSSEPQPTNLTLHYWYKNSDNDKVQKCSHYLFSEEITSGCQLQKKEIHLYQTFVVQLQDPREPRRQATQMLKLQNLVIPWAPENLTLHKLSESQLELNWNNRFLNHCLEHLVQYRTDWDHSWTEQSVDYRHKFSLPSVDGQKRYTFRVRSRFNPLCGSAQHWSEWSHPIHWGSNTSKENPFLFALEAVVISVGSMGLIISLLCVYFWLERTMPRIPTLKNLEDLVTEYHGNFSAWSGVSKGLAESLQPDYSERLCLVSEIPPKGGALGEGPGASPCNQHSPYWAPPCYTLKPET

Average EC50 (nM), HEK-Blue IL-2R (CD122+, CD132+) Reporter Assay [nM]	Binder
0.192	CMP-159 (ligand, linker N-28 via PEG4′; not fully specified (N-terminus); ends not checked) PLGLAGAPTSSSTKKTQLQLEHLLLDLE[Nle]ILNGINNYKNPKLTR[Nle]L[hSer][Yn3(4)]KF[Ygp(4)][Nle]PKKATELKHLQCLEEELKPLEEVL[hSer]LAQSKNFHLRPRDLISNINVIVLELKGSETTF[hSer]CEYADETATIVEFLNRWITFSQSIISTLT
0.106	CMP-154 (ligand, linker N-35 via PEG9′; not fully specified (N-terminus); ends not checked) PLGLAGAPTSSSTKKTQLQLEHLLLDLQ[Nle]ILNGIENYKNPKLTR[Nle]L[hSer][Yn3(4)]KF[Ygp(4)][Nle]PKKATELKHLQCLEEELKPLEEVL[hSer]LAQSKNFHLRPRDLISNINVIVLELKGSETTF[hSer]CEYADETATIVEFLNRWITFSQSIISTLT
0.0059	CMP-154, MMP2 cleaved (ligand, linker N-35 via PEG9′; not fully specified (N-terminus); ends not checked; also: cleavable peptide cut by MMP2, site not given here) PLGLAGAPTSSSTKKTQLQLEHLLLDLQ[Nle]ILNGIENYKNPKLTR[Nle]L[hSer][Yn3(4)]KF[Ygp(4)][Nle]PKKATELKHLQCLEEELKPLEEVL[hSer]LAQSKNFHLRPRDLISNINVIVLELKGSETTF[hSer]CEYADETATIVEFLNRWITFSQSIISTLT
0.0118	CMP-161, MMP2 cleaved (ligand, not fully specified (N-terminus, bridges); ends and bridges not checked; also: cut by MMP2 in the PLGLAG linker, site not given here, ring opened) PLGLAGAPTSSSTKKTQLQLEHLLLDLQ[Nle]ILEGINNYKNPKLTR[Nle]L[hSer][Yn3(4)]KF[Ygp(4)][Nle]PKKATELKHLQCLEEELKPLEEVL[hSer]LAQSKNFHLRPRDLISNINVIVLELKGSETTF[hSer]CEYADETATIVEFLNRWITFSQSIISTLT
0.168	CMP-161 (ligand, linker N-32 via PEG9″; not fully specified (N-terminus); ends not checked) PLGLAGAPTSSSTKKTQLQLEHLLLDLQ[Nle]ILEGINNYKNPKLTR[Nle]L[hSer][Yn3(4)]KF[Ygp(4)][Nle]PKKATELKHLQCLEEELKPLEEVL[hSer]LAQSKNFHLRPRDLISNINVIVLELKGSETTF[hSer]CEYADETATIVEFLNRWITFSQSIISTLT
0.0071	CMP-159, MMP2 cleaved (ligand, linker N-28 via PEG4′; not fully specified (N-terminus); ends not checked; also: cut by MMP2 in the PLGLAG linker, site not given here, ring opened) PLGLAGAPTSSSTKKTQLQLEHLLLDLE[Nle]ILNGINNYKNPKLTR[Nle]L[hSer][Yn3(4)]KF[Ygp(4)][Nle]PKKATELKHLQCLEEELKPLEEVL[hSer]LAQSKNFHLRPRDLISNINVIVLELKGSETTF[hSer]CEYADETATIVEFLNRWITFSQSIISTLT
0.0597	CMP-152 (ligand, not fully specified; Nle, Hse, Yn3 (Tyr with azide-capped PEG9), Ygp (Tyr with amino-capped PEG8) as printed in Table 3; PEG9-PLGLAG on the N-terminus, cyclised through glutaryl to the side chain of Lys 32) PLGLAGAPTSSSTKKTQLQLEHLLLDLQXILNGINNYKNPKLTRXLXYKFYXPKKATELKHLQCLEEELKPLEEVLXLAQSKNFHLRPRDLISNINVIVLELKGSETTFXCEYADETATIVEFLNRWITFSQSIISTLT
0.0064	CMP-152, MMP2 cleaved (ligand, linker N-38 via glutaryl‑PEG9; not fully specified (N-terminus); ends not checked; also: cleavable peptide cut by MMP2, site not given here) PLGLAGAPTSSSTKKTQLQLEHLLLDLQ[Nle]ILNGINNYKNPKLTR[Nle]L[hSer][Yn3(4)]KF[Ygp(4)][Nle]PKKATELKHLQCLEEELKPLEEVL[hSer]LAQSKNFHLRPRDLISNINVIVLELKGSETTF[hSer]CEYADETATIVEFLNRWITFSQSIISTLT
